According to patent publication US10369195B2, “Methods and compositions for preventing and treating damage to the heart” (MandalMed, Inc., priority 2016, dated 2019):

Assays:
[1] = tested on: Primary human cardiac fibroblasts; assay: TGFβ1-induced differentiation of primary cardiac fibroblasts to myofibroblasts (immunoblots of SMA and tensin 1); assay type: cell-based
Description: Galectin-3 was purified on lactosyl-sepharose from recombinant E. coli pelleted from 40 L of culture, collagenase digested, and then Gal-3C was isolated on lactosyl sepharose as previously described (41). Primary human cardiac fibroblasts (Cell Applications, San Diego, Calif.) were purchased and cultured as per the vendor's recommendations. 200,000 cells at passage 2-3 were cultured in 6-well plates until confluent, starved for 48 h and then induced to differentiate to myofibroblasts by treatment with […] TGFβ1 for 48-72 h. Varying concentrations of Gal-3C were also incubated with the cells. The cells were harvested, lysates prepared, and total protein quantified with a BCA assay (Pierce/Thermo). A total of […] protein was analyzed per condition by immunoblots using primary Abs against smooth muscle actin (SMA) and tensin 1 (Sigma-Aldrich).

[2] = tested on: rat ischemia-reperfusion model of MI; assay: Interstitial (non-scar) border zone fibrosis from Sirius red-stained heart sections; assay type: in vivo; settings: delayed window, 600 μg/day
Excerpt: (§1) After rats in the delayed treatment study were euthanized, hearts were harvested and sectioned for Masson's trichrome and Sirius red staining with quantitative image analysis to assess remodeling. Rather than using an optimized approach for infarct size measurement in permanent ligation rat models (64), it was confirmed that in the ischemia-reperfusion MI model, a volumetric infarct sizing approach (i.e., % area in the tissue sections that was scarred) would be more accurate. Using this approach for analysis of Masson's trichrome staining, it was shown that the infarct size was considerably (>2-fold) reduced in Gal-3C-treated (600 μg/day) rats, a difference that achieved significance with Gal-3C treatment in the delayed window (FIG. 8A).
Quantitative histology of Sirius red staining for interstitial fibrosis was performed on tissue sections with the most scar from each heart as described above in Example 3 using ImageJ.

[3] = tested on: rat ischemia-reperfusion model of MI; assay: Pilot dose-finding study: hydroxyproline assay of collagen in the left ventricle after ischemia-reperfusion MI; assay type: in vivo; settings: 100, 200, 400, 600 μg/day by osmotic pump from day 0 for 7 days; vs vehicle; n=2-3
Description: Animal experiments to test the therapeutic potential of Gal-3C in the preservation of post-MI cardiac function were performed using surgical induction of MI in rodents and functional evaluation of treatment as previously described (61-66). To most accurately model cardiac damage experienced by MI patients, a well-established ischemia-reperfusion procedure was used in which the left anterior descending coronary artery (LAD) of rats was occluded for 25 min followed by restoration of blood flow (67). […]
Briefly, rats were ventilated to a small animal volume-controlled ventilator (Harvard Rodent Ventilator, Model 683, South Natick, Mass.), and the heart was exposed via thoracotomy. […] All animals were monitored post-operation until they became ambulatory. […]
A pilot dose-finding study was performed to determine Gal-3C levels reducing fibrosis, with collagen levels in heart tissue extracts as surrogate endpoints. […] It was determined that an equivalent to the mouse dose for use in rats of 250-300 g/body weight based on m^2 of average body surface area of the two species as approximately 105 μg/day. […]

[4] = tested on: rat ischemia-reperfusion model of MI; assay: Infarct size from Masson's trichrome-stained heart sections (volumetric, % area scarred); assay type: in vivo; settings: 600 μg/day
Excerpt: as §1
As described in Example 3 above, rats were euthanized at 8 weeks post-MI, hearts were harvested and sectioned for Masson's trichrome and Sirius red staining with quantitative image analysis using a volumetric infarct sizing approach (i.e., % area in the tissue sections that was scarred) for analysis of Masson's trichrome staining to calculate the size of the primary infarct.

[5] = TGFβ1 5 or 15 mg/ml for 48-72 h, varying concentrations of Gal-3C

B1: Gal-3C: N-terminally truncated form of full length galectin-3, lacking the amino-terminal domain but retaining carbohydrate binding ability; 143 carboxy-terminal residues, SEQ ID NO: 3 (protein)
chain: GAPAGPLIVPYNLPLPGGVVPRMLITILGTVKPNANRIALDFQRGNDVAFHFNPRFNENNRRVIVCNTKLDNNWGREERQSVFPFESGKPFKIQVLVEPDHFKVAVNDAHLLQYNHRVKKLNEISKLGISGDIDITSASYTMI
- differentiation to myofibroblasts induced by TGF1β (decreased expression of tensin-1 and SMA) ([1]; Gal-3C 4-20 μg/ml, TGF1β 15 μg/ml): inhibited the differentiation to myofibroblasts
- expression of SMA (smooth muscle actin), immunoblot [1, 5]: inhibited expression
- expression of tensin 1, immunoblot [1, 5]: inhibited expression
- reduction of interstitial fibrosis relative to vehicle-only controls ([2]; 8 weeks post-MI, n=12/group): roughly 50%
- interstitial fibrosis (Sirius red), mean +/- SD ([2]; 8 weeks post-MI, n=12/group, P=0.0003 vs PBS-only): 2.4+/−1.3%
- reduction of interstitial fibrosis vs vehicle-only controls ([2]; 28 days post-MI): ~65%
- reduction of collagen levels in the LV (hydroxyproline assay) [3]: 20-35%
- reduction of infarct size ([4]; 28 days post-MI, significant in the delayed window): > 2 fold
- infarct size vs PBS group ([4]; delayed window, 8 weeks post-MI): significantly smaller
